Fewer inactive variants are shown than the library holds.
B1: TPR 5TU (parent)
chain: GGAUCUUCUCGAUCUAACAAAAAAGACAAAUCUGCCACAAAGCUUGAGAGCAUCUUCGGAUGCAGAGGCGGCAGCCUUCGGUGGCGCGAUAGCGCCAACGUUCUCAACUAUGACACGCAAAACGCGUGCUCCGUUGAAUGGAGUUUAUCAUG

Variants of: B1
Test: polymerase ribozyme fitness, log enrichment relative to wild type (log ratio); higher = more active; in vitro selection for triplet polymerase activity
Method in brief: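 Only genotypes with ≥10 input reads and ≥1 read per output were kept after Illumina sequencing of input and output libraries. These libraries were PCR-built, transcribed mutants of each subunit of a heterodimeric triplet polymerase ribozyme, each put through one triplicate in vitro selection round with frozen incubation at −7 °C, gel excision of extended constructs, streptavidin-bead capture and RT-PCR. Fitness is a logarithmic ratio of genotype enrichment to wild-type enrichment, from inverse-variance-weighted replicate averages, with the logarithm in base 2.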

Row | Variant | polymerase ribozyme fitness (log ratio)
1 | A16C G126A | -0.0283
2 | U15G C27U G84A | -1.78
3 | A16C U61A G67A C87U A107U | ≤ -4.2
4 | A16C U55A A106G | -1.85
5 | U15G C93U | -2.61
6 | A16C G25C | -2.46
7 | U15G C54U A60U C75G A113G | ≤ -4.2
8 | A16C A49U C85A G126U U139G | -3.47
9 | U15G G84A | -1.57
10 | U15G G25U | -3.22
11 | A16C A91C U101C | ≤ -4.2
12 | A16C U31C A37C A40C C95G G100A C114U | ≤ -4.2
13 | A16G A19G G84U A122U | -3.73
14 | U15G U82C G94A | -1.01
15 | A16C C85U C95A C132U | -3.71
16 | A16C C85U A106U G126A | -3.28
17 | U15G G50C C69U C76A G84U | ≤ -4.2
18 | U15G A60G C87G C103G A147C | ≤ -4.2
19 | A16C G25U U61G G88U C93U G136A A147C U148C | ≤ -4.2
20 | U15G A52C C96U U101G C129A | ≤ -4.2
21 | A16C C51U G84U U135A | -3.41

Row | Variant | polymerase ribozyme fitness (log ratio)
22 | A16C A21C C57A G88U C103G U130G | ≤ -4.2
23 | U15G G34U A107C A115U C118A U134C U135G A150G | ≤ -4.2
24 | U15G C116U | 0.239
25 | A16C A40C G59A C93U A106G | -2.02
26 | A16C A21G C54A C95A | -3.07
27 | U15G C18G A40U | -1.5
28 | A16C A24G A73C A121G | ≤ -4.2
29 | A16C C32U | -2.43
30 | U15G C103A | -1.91
31 | A16C A20C G84U A97U U130C | -4.17
32 | A16C A52U C85G A122G G124C | ≤ -4.2
33 | A16C U101G U127A | -3.71
34 | U15G C51A C93A G124U U145A | -3.28
35 | A16C A19U A73G C87A U148G G152U | ≤ -4.2
36 | U15G G71U | -2.28
37 | A16C G59A C76A C85G U139A | ≤ -4.2
38 | A16C A40U C93A A122G G141C | ≤ -4.2
39 | A16C A20U | -2.36
40 | A16C G25U C36U G59C C93U U104G G140C | ≤ -4.2
41 | A16C A17G C57U G86A G133U | ≤ -4.2
42 | A16C A20C A41C C85G C116U | -3.81

Row | Variant | polymerase ribozyme fitness (log ratio)
43 | A16C U45G A106G | -0.613
44 | U15G C51U A98U A115G G136A | -2.29
45 | A16C C18G A22G C27U A52G U61A A73G C85A U127C U139C | ≤ -4.2
46 | U15G G46U G65A G68C C85U C116G | ≤ -4.2
47 | U15G A73U C93U A120G | -2.43
48 | A16C G42U U56C G81U C85G | ≤ -4.2
49 | U15G A110G | -3.59
50 | A16C A110G | -3.67
51 | A16C A17G G58U C87A C93A | ≤ -4.2
52 | A16C A73G G92A | -3.3
53 | U15G G48U C54U C123A G136U | -2.93
54 | A16C G84U A120G | -2.78
55 | A16C G141A | -0.406
56 | U15G C85U C87A | ≤ -4.2
57 | A16G A17G A19C G50A | 0.928
58 | A16C A26U | -2.62
59 | A16C G34U C93U C105U G112A | ≤ -4.2
60 | A16C C32U A122G | -3.01
61 | A16C A19U A73G C87A | ≤ -4.2
62 | U15G G42A C75A G83U A122U G128A | ≤ -4.2
63 | U15G U31A | 0.571

Row | Variant | polymerase ribozyme fitness (log ratio)
64 | A16C G59A C85G G126U | -2.76
65 | U15G C51U G86U A89U C114U | ≤ -4.2
66 | A16C U55A | -1.28
67 | A16C A17G C96G C118U | -1.74
68 | A16C C51A C54G C57A C96A G117U U135G | ≤ -4.2
69 | U15G G94C C96U U111A G152A | ≤ -4.2
70 | A16C U55A A142G A150G | -3.06
71 | U15G G50C C95A C99U A120U | ≤ -4.2
72 | A16C A150U | -0.0438
73 | A16C A17C A20U A30U A37C U55G C93G C103A A119G | ≤ -4.2
74 | U15G C18A A23C A60G U104G C123G | ≤ -4.2
75 | U15G A49C G50A U78A A91C C93A G126U | ≤ -4.2
76 | A16C U101G | -0.303
77 | U15G C132A | -2.26
78 | A16C U56C C87U | -2.13
79 | A16C A20G A24U A40G G48U G58U U77C C85U | ≤ -4.2
80 | U15G G84A C96A A119U | -2.08
81 | A16C U56A C103A G124U G143C | ≤ -4.2
82 | A16C G84A C105G C114U C125A U144A U151G | ≤ -4.2
83 | A16C A26U G42U A47C U55A U90G A98G | ≤ -4.2
